From patent publication US20140248278A1, “ANTI-CD22 ANTIGEN BINDING MOLECULES TO TREAT LUNG CANCER AND PROSTATE CANCER” (The Regents of the University of California, priority 2011, published 2014) come the findings set out here.

One series concerns Ramos NHL cells. The experiment in a line: In vitro cytotoxicity assay, Ramos cells. The series is classed as cell-based, human. As to conditions: after 48 hours. As for the experimental part:
(§1) FIGS. 2A-C illustrate anti-CD22 mediated cytotoxicity and CD22 internalization. (A) Ligation of CD22 mediates cytotoxicity of NSCLC and NHL B cells. Cells were treated with the anti-CD22 or anti-CD20 mAbs (HB22.7 or rituximab, respectively) (50 ug/ml) for 48 hr then assessed with an MTT assay. (B) Internalization of CD22 was assessed on NSCLC cell lines. The degree of internalization was determined by assessing the cytotoxicity of a carrier protein attached to an anti-mouse mAb (ZAP) compared to a non-cytotoxic control (SAP). HB22.7-ZAP and HB22.7-SAP were assessed in Ramos B-cells (top) and two NSCLC cell lines, A549 and H727 (bottom). […] PBMCs (10:1 PBMC:A549 ratio) were incubated +/− complement (1:10 dilution), or +/− huHB22.7 (50 μg/cc). A549-specific cytotoxicity was assessed with a DELFIA EuTDA cytotoxicity assay and reported as % of control.
(§2) Ramos, A549, or H1650 cells (2-2.5×10^4 per sample) were plated in triplicate in 96 well round bottom plates in a volume of 100 μL per well. Cells were treated for 1 hour with HB22.7, or rituximab to final concentrations of 25 μg/mL. Control cells received media only. […] Viability was assessed by trypan blue exclusion; experiments were done in triplicate and results were expressed as % of control (untreated cells) with the error bars representing the standard deviation.

Series [1] deals with NSCLC lines (H1650, Calu-1, A549). The experiment in a line: In vitro cytotoxicity assay, NSCLC lines. Type of series: cell-based, human. As to conditions: after 48 hours. As for the experimental part: as §1, §2

Turning to rituximab: anti-CD20 control mAb, in the series with Ramos NHL cells, the cytotoxic effects result is listed as “cytotoxic effects”. For the same substance, in series [1], the cytotoxic response result was “no cytotoxic response”.
